Source: publication PMC8577781

target: human recombinant CXCL10 (human) (UniProt P02778)
UniProt P02778, sequence (P02778 22-98): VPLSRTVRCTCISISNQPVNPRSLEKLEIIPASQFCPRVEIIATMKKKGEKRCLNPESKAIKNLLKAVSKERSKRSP

First: L. (L.) major GP63 (glycoprotein-63), wild-type allele gp63^PYSDGS (from UniProt P08148 40-577) (enzyme)
Second: L. (L.) major GP63 D463N mutant gp63^PYSNGS (from UniProt P08148 40-577) (enzyme)
The CXCL10 cleavage rate: GP63 in conditioned medium incubated with 1000 pg/mL CXCL10 for 2 hours, remaining CXCL10 measured by ELISA, rate by linear regression of the first is 5.2-fold higher: 6.07 pg/mL/min for the first, 1.16 pg/mL/min for the second.

With “L. (L.) major GP63 triple mutant gp63^GYSNGA (from UniProt P08148 40-577) (enzyme)” the CXCL10 cleavage rate: GP63 in conditioned medium incubated with 1000 pg/mL CXCL10 for 2 hours, remaining CXCL10 measured by ELISA, rate by linear regression was 0.14 pg/mL/min.
